Target: 125I-labeled fibronectin
Assay: binding of 125I-labeled fibronectin to whole bacterial cells

In the case of “whole cells of S. aureus ALC561 (ALC136 with pALC561, sar fragment nt 1-1349) (cells without a defined receptor)”, the cpm of 125I fibronectin bound to 10^9 CFU is reported as 19300 cpm.
“whole cells of S. aureus strain RN6390 (parental strain) (cells without a defined receptor)” showed a cpm of 125I fibronectin bound to 10^9 CFU of 3320 cpm.
“whole cells of S. aureus sar mutant ALC136 (isogenic mutant of RN6390 carrying a sar::Tn917LTV1 mutation) (cells without a defined receptor)” was tested, and the cpm of 125I fibronectin bound to 10^9 CFU was 2390 cpm.
